Results taken from US20210024615A1 (LIVERPOOL SCHOOL OF TROPICAL MEDICINE, published 2021).
Residue numbers refer to the chain shown, from its start.

Legend:
Assay in all cases: ELISA
clec-4d = target: T1, clec-4d (UniProt Q8WXI8 39-215)
T1 sequence (looked up): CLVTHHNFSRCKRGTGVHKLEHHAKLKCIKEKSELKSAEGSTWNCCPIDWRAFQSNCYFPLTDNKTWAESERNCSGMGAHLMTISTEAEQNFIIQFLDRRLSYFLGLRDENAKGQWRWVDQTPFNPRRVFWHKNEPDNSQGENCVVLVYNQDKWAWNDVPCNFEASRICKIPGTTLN

clec-4a = target: T2, clec-4a (UniProt Q9UMR7 70-237)
T2 construct: also called DCIR
T2 sequence (looked up): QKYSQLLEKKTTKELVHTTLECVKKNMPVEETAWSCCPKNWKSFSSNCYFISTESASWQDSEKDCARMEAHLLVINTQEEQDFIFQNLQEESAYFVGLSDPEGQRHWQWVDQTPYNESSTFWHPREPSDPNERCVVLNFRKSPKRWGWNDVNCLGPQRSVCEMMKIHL

MMR = target: T3, MMR (UniProt P22897 19-1383)
T3 sequence (looked up): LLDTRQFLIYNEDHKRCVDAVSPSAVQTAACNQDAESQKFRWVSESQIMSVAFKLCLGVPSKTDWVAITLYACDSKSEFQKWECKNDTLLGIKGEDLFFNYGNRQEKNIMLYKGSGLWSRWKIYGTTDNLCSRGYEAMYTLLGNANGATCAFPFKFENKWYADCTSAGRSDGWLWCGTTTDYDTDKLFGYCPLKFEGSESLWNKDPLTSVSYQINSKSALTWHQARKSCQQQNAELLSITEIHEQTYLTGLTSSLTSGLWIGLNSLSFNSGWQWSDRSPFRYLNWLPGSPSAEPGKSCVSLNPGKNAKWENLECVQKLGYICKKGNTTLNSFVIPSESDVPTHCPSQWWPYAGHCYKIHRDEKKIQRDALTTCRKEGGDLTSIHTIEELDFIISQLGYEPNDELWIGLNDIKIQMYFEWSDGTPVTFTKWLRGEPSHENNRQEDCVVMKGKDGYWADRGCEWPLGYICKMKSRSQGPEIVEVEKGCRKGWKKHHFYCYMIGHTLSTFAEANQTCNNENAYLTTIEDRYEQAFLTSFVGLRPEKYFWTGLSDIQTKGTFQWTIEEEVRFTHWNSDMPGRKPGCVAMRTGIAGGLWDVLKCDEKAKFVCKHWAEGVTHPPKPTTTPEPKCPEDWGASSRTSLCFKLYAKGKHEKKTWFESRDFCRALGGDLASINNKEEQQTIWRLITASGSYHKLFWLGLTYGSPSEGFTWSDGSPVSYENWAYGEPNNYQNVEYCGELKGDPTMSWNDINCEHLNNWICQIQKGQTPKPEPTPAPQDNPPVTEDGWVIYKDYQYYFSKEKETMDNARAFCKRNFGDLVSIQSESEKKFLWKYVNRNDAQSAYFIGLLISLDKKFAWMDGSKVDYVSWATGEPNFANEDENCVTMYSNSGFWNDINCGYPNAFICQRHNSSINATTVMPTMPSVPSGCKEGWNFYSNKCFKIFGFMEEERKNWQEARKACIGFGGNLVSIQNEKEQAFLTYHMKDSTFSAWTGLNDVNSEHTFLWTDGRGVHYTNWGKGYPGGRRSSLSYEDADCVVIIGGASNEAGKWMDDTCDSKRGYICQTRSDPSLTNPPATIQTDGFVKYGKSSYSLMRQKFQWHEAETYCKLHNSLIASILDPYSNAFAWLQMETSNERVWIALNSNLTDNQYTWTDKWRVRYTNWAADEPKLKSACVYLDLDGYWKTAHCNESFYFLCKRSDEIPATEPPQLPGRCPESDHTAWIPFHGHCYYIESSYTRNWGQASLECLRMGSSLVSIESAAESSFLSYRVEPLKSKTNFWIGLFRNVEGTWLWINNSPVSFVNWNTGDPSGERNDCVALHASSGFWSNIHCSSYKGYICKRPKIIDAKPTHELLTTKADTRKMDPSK

MBL = MBL (UniProt P11226 21-248)
Sequence of MBL (P11226 21-248 limits assumed): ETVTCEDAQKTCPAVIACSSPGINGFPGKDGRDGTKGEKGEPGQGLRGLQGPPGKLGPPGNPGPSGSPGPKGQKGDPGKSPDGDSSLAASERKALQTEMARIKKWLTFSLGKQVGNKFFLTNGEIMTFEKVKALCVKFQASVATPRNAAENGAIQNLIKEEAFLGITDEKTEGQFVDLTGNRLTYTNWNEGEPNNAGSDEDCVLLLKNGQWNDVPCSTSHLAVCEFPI

Siglec-2 = target: T4, Siglec-2 (UniProt P20273 20-687)
T4 construct: also called CD22

dectin-2 = target: T5, dectin-2 (UniProt Q6EIG7 46-209)
T5 construct: also called dec-2
T5 sequence (looked up): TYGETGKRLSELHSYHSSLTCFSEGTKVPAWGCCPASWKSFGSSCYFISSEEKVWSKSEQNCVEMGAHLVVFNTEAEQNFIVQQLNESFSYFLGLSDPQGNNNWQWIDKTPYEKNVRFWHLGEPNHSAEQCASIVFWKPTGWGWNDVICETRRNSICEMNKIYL

Siglec-3 = Siglec-3 (UniProt P20138 18-259)
Sequence of Siglec-3 (P20138 18-259 limits assumed): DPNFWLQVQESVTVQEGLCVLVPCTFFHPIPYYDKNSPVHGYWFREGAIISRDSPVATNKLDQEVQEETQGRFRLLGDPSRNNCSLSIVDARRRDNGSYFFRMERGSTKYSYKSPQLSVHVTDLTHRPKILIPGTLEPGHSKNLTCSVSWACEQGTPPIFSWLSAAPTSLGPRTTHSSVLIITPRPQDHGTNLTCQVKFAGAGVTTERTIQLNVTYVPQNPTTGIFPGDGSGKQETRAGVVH

Siglec-4 = target: T6, Siglec-4 (UniProt P20916 20-516)
T6 construct: also called MAG
T6 sequence (looked up): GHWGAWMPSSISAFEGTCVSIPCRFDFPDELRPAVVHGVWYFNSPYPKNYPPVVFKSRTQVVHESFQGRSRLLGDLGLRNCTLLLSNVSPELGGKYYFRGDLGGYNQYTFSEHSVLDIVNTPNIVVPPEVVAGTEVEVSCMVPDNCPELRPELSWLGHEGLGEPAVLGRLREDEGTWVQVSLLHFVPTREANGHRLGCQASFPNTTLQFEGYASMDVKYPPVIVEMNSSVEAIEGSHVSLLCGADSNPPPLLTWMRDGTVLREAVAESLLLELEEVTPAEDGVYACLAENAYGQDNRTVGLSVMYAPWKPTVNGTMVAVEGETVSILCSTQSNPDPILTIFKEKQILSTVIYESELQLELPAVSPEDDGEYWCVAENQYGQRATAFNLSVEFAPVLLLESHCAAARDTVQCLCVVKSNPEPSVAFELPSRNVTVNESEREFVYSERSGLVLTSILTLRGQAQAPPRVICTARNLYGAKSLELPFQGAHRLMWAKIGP

dectin-1 = target: T7, dectin-1 (UniProt Q9BXN2-2 66-201)
T7 construct: also called dec-1
T7 sequence (looked up): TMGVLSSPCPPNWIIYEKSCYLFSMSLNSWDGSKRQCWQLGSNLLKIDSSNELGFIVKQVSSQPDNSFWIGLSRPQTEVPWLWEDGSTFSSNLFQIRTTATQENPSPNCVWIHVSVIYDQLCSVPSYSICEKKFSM

tetrameric human DC-SIGN = target: T8, tetrameric human DC-SIGN (human, UniProt Q9NNX6 66-404)
T8 sequence (looked up): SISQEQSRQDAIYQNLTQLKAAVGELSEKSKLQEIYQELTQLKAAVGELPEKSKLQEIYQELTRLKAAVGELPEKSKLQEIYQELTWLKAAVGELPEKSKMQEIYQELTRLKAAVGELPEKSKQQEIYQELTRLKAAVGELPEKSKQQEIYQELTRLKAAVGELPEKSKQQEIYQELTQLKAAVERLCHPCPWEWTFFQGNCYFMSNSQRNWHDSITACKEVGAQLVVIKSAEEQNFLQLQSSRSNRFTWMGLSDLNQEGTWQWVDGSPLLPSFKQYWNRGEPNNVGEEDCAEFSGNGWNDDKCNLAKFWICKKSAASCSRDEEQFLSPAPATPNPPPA

human FcγRIIIA = human FcγRIIIA (human, UniProt P08637 17-208)
Sequence of human FcγRIIIA (P08637 17-208 limits assumed): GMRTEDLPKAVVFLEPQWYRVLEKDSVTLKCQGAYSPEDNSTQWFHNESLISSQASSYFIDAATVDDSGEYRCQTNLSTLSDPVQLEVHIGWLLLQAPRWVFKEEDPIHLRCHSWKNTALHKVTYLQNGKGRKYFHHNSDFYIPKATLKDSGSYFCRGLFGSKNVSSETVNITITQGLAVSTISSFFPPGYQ

human FcγRIIB = target: T9, human FcγRIIB (human, UniProt P31994 46-217)
T9 construct: also called CD32B
T9 sequence (looked up): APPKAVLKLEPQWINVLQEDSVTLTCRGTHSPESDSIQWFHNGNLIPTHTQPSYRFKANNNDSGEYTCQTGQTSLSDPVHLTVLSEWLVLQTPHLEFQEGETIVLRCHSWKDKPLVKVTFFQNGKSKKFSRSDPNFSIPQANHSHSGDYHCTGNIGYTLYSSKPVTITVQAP

C1q = C1q (UniProt P02745 23-245; P02746 28-253; P02747 29-245)
Sequence of C1q (P02745 23-245, chain 1 of 3): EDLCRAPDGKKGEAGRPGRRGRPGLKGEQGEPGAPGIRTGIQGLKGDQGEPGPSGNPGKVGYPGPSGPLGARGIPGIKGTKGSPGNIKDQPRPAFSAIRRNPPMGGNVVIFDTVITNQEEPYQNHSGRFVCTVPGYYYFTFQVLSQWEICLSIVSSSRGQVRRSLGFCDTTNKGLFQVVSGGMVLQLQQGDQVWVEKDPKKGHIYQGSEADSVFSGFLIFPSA
Sequence of C1q (P02746 28-253, chain 2 of 3): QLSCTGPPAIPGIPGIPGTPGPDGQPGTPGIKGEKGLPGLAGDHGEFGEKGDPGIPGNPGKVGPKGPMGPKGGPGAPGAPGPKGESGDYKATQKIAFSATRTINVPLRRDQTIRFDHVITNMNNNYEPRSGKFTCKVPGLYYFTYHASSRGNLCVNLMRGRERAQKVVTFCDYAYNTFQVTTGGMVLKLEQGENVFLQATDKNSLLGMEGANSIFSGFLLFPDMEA
Sequence of C1q (P02747 29-245, chain 3 of 3): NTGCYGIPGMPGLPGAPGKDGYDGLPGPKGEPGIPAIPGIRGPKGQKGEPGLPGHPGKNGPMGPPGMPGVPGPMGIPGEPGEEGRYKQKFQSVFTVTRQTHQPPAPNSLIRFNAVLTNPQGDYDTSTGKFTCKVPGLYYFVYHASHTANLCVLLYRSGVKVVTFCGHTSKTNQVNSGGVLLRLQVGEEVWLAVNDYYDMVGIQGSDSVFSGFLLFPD

CD23 = target: T10, CD23 (UniProt P06734 48-321)
T10 sequence (looked up): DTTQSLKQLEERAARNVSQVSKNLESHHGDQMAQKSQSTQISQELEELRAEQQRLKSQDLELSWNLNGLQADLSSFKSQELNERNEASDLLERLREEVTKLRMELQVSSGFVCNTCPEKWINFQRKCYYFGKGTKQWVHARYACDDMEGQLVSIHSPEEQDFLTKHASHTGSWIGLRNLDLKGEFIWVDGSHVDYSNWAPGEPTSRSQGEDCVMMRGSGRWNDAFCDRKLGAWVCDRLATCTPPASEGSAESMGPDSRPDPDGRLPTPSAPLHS

human FcγRIIA = target: T11, human FcγRIIA (human, UniProt P12318 36-218)
T11 sequence (looked up): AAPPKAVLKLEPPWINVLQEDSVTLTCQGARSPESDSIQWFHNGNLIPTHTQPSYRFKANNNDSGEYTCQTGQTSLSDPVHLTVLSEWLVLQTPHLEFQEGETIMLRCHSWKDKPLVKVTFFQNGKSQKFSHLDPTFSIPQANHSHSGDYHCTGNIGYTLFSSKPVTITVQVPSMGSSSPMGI

human FcγRIIIB = human FcγRIIIB (human, UniProt O75015 17-200)
Sequence of human FcγRIIIB (O75015 17-200 limits assumed): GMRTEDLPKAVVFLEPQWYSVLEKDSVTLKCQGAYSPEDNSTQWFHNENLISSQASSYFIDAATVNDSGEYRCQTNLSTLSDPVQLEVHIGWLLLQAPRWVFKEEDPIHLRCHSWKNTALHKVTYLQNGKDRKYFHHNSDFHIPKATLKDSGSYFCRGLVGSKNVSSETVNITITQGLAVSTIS

B1: [change]/[change] (other)
chain: DKTHTCPPCPAPELLGGPSVFLFPPKPKDTLMISRTPEVTCVVVDVSHEDPEVKFNWYVDGVEVHNAKTKPREEQYASTYRVVSVLTVCLQDWLNGKEYKCKVSNKALPAPIEKTISKAKGQPREPQVYTLPPSREEMTKNQVSLTCLVKGFYPSDIAVEWESNGQPENNYKTTPPVLDSDGSFFLYSKLTVDKSRWQQGNVFSCSVMHEALHNHYTQKSLSLSPGKLVLGPPLYNVSLVMSDTAGTAY
B1: no binding (clec-4d); no binding (clec-4a); no binding (MMR). B1: no binding (MBL); no binding (Siglec-2); no binding (dectin-2). B1: no binding (Siglec-3); no binding (Siglec-4); no binding (dectin-1). B1: no binding (tetrameric human DC-SIGN); no binding (human FcγRIIIA); no binding (human FcγRIIB). B1: no binding (C1q).

B2: [change]/[change] (other)
chain: B1 chain with D1N, A77N
B2: no binding (clec-4d); no binding (clec-4a); no binding (MMR). B2: no binding (MBL); no binding (dectin-2); no binding (Siglec-3). B2: no binding (dectin-1); no binding (tetrameric human DC-SIGN); no binding (human FcγRIIIA). B2: no binding (C1q).

B3: [change]/[change]/[change] (other)
chain: B1 chain with D1N, A77N, N236A
B3: no binding (clec-4d); no binding (CD23); no binding (clec-4a). B3: no binding (MMR); no binding (MBL); no binding (Siglec-2). B3: no binding (Siglec-3); no binding (dectin-1); no binding (tetrameric human DC-SIGN). B3: binds (human FcγRIIIA); no binding (human FcγRIIB).

B4: [change]/[change]/[change] (other)
chain: B1 chain with N236A
B4: no binding (clec-4d); no binding (CD23); no binding (clec-4a). B4: no binding (Siglec-3); binds (tetrameric human DC-SIGN); no binding (human FcγRIIIA). B4: binds (human FcγRIIB).

B5: [change]/[change]/[change] (other)
chain: B1 chain with D1N
B5: no binding (clec-4d); no binding (clec-4a); no binding (MMR). B5: no binding (MBL); no binding (Siglec-2); no binding (dectin-2). B5: no binding (Siglec-3); no binding (Siglec-4); no binding (dectin-1). B5: no binding (tetrameric human DC-SIGN); no binding (human FcγRIIIA); no binding (human FcγRIIB). B5: no binding (C1q).

B6: [change]/[change]/[change]/[change] (other)
chain: B1 chain with D1N, N236A
B6: no binding (clec-4a); no binding (MMR); no binding (MBL). B6: no binding (dectin-1); no binding (tetrameric human DC-SIGN); no binding (human FcγRIIIA). B6: no binding (human FcγRIIB); no binding (human FcγRIIA); no binding (human FcγRIIIB).
